Results reported in US20180142032A1 (Sanofi, published 2018).

T1: LAMP1::histag (human, UniProt P11279 29-382)
T1 construct: extracellular domain without signal peptide, C-terminal 6 His tag, made in HEK293 cells; also called recombinant human LAMP1; human LAMP1 (29-382)
T1 sequence: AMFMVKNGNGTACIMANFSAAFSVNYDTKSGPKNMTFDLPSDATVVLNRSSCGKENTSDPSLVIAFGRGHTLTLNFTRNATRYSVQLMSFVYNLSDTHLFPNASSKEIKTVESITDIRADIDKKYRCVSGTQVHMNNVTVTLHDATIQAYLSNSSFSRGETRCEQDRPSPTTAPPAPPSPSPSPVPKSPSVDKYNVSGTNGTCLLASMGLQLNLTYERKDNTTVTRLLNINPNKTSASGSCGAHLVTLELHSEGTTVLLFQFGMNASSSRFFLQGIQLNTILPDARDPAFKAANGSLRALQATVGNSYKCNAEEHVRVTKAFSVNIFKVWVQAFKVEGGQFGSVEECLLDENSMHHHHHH

T2: mLAMP1_ΔGYQTI (mouse, UniProt P11438 25-369)
T2 construct: on cells; also called pXL6009; murine LAMP1; not shown: murine transmembrane domain and cytoplasmic tail with GYQTI replaced by 5 Ala
T2 sequence: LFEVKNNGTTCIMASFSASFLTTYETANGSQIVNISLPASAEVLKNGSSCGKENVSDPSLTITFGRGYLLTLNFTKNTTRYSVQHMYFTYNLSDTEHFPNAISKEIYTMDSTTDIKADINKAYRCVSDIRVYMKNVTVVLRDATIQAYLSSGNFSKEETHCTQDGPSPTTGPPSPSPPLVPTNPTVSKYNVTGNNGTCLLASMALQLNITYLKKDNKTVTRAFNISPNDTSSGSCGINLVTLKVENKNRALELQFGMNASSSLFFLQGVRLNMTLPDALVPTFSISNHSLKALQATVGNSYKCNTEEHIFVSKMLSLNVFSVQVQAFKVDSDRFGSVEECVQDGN

T3: mLAMP1_hseq6-11_ΔGYQTI (mouse; human, UniProt P11438 25-369)
T3 construct: on cells; also called pXL6041; not shown: murine transmembrane domain and cytoplasmic tail with GYQTI replaced by 5 Ala
T3 chain: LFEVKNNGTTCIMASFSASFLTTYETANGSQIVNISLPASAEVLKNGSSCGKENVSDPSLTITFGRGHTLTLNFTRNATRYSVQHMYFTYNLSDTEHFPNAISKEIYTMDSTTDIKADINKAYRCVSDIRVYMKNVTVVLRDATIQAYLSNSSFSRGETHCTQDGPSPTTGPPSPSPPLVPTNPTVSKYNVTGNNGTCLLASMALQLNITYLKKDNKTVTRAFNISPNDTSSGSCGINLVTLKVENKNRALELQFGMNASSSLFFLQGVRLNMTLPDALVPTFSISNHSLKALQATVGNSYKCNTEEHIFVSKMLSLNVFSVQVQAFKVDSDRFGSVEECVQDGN

T4: mLAMP1_hseq11_ΔGYQTI (mouse; human, UniProt P11438 25-369)
T4 construct: on cells; numbering read as for pXL6041; also called pXL6048; not shown: murine transmembrane domain and cytoplasmic tail with GYQTI replaced by 5 Ala
T4 chain: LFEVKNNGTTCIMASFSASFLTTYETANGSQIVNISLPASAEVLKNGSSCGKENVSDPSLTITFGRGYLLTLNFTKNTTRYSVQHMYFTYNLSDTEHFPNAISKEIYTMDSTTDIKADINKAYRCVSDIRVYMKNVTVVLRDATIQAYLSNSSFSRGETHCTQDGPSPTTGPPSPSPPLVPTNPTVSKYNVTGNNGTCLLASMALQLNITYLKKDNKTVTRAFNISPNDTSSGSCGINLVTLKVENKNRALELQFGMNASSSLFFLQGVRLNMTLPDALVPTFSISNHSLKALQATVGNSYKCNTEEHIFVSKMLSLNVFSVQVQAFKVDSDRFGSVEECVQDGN

T5: mLAMP1_hseq6_ΔGYQTI (mouse; human, UniProt P11438 25-369)
T5 construct: on cells; numbering read as for pXL6041; also called pXL6047; not shown: murine transmembrane domain and cytoplasmic tail with GYQTI replaced by 5 Ala
T5 chain: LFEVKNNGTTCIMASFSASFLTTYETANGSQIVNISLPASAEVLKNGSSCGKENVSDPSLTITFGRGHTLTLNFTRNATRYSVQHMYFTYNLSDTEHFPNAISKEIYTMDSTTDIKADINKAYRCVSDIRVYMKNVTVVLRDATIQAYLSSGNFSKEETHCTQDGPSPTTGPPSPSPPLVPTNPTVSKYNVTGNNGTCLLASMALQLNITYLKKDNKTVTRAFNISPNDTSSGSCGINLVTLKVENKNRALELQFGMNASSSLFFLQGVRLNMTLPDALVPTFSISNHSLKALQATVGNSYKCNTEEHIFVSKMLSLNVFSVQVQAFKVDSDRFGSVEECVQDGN


Experiments:
LAMP1_mseq4_ΔGYQTI = biological target: T6, LAMP1_mseq4_ΔGYQTI (human; mouse); test: flow cytometry, transfected 293-F cells
T6 construct: on cells; also called pXL6015

LAMP1::histag [1] = biological target: T1, LAMP1::histag; test: ELISA on secreted LAMP1
mLAMP1_ΔGYQTI [2] = biological target: T2, mLAMP1_ΔGYQTI; test: flow cytometry, transfected 293-F cells, experiment 1
mLAMP1_hseq6-11_ΔGYQTI = biological target: T3, mLAMP1_hseq6-11_ΔGYQTI; test: as above
mLAMP1_hseq11_ΔGYQTI = biological target: T4, mLAMP1_hseq11_ΔGYQTI; test: as above
mLAMP1_hseq6_ΔGYQTI = biological target: T5, mLAMP1_hseq6_ΔGYQTI; test: as above
LAMP1::histag [3] = biological target: T1, LAMP1::histag; test: ELISA on recombinant human LAMP1
mLAMP1_ΔGYQTI [4] = biological target: T2, mLAMP1_ΔGYQTI; test: flow cytometry, transfected 293-F cells

mean fluorescence (LAMP1_mseq4_ΔGYQTI)	EC50 (LAMP1::histag [1])	binding result (mLAMP1_ΔGYQTI [2])	mean fluorescence (mLAMP1_ΔGYQTI [2])	mean fluorescence (mLAMP1_hseq6-11_ΔGYQTI)	binding result (mLAMP1_hseq11_ΔGYQTI)	mean fluorescence (mLAMP1_hseq11_ΔGYQTI)	binding result (mLAMP1_hseq6_ΔGYQTI)	mean fluorescence (mLAMP1_hseq6_ΔGYQTI)	EC50 (LAMP1::histag [3])	binding result (mLAMP1_hseq6-11_ΔGYQTI)	binding result (mLAMP1_ΔGYQTI [4])	Binder
891	~200 pM	no binding	4	680	no binding	6	no binding	7	180 pM	–	–	MAb1 (antibody, mouse IgG2a, kappa, murine monoclonal IgG, kappa, from hybridoma; also called murine MAb1) heavy: QVQLQQSGAELVKPGASVKMSCKASGYIFTNYNIHWVKKSPGQGLEWIGAIYPGNGDAPYSQKFKDKATLTADKSSSTTYMQLSRLTSEDSAVYYCVRANWDVAFAYWGQGTLVSVSAAKTTAPSVYPLAPVCGDTTGSSVTLGCLVKGYFPEPVTLTWNSGSLSSGVHTFPAVLQSDLYTLSSSVTVTSSTWPSQSITCNVAHPASSTKVDKKIEPRGPTIKPCPPCKCPAPNLLGGPSVFIFPPKIKDVLMISLSPIVTCVVVDVSEDDPDVQISWFVNNVEVHTAQTQTHREDYNSTLRVVSALPIQHQDWMSGKEFKCKVNNKDLPAPIERTISKPKGSVRAPQVYVLPPPEEEMTKKQVTLTCMVTDFMPEDIYVEWTNNGKTELNYKNTEPVLDSDGSYFMYSKLRVEKKNWVERNSYSCSVVHEGLHNHHTTKSFSRTPGK light: DIQMTQSPPSLSASLGGKVTITCKASQDIDRYMAWYQDKPGKGPRLLIHDTSTLQPGIPSRFSGSGSGRDYSFSISNLEPEDIATYYCLQYDNLWTFGGGTKLEIKRADAAPTVSIFPPSSEQLTSGGASVVCFLNNFYPKDINVKWKIDGSERQNGVLNSWTDQDSKDSTYSMSSTLTLTKDEYERHNSYTCEATHKTSTSPIVKSFNRNEC
–	~300 pM	no binding	21	28	no binding	28	no binding	25	250 pM	no binding	–	MAb2 (antibody, mouse IgG1, kappa, murine monoclonal IgG, kappa, from hybridoma; also called murine MAb2) heavy: QVQLQQSAAELARPGASVKMSCKASGYTFTSYTMHWVKQRPGQGLEWIGYFNPSSGYPEYNQKFKDKTTLTADKSSNTAFIQLNSLTSEDSAVYYCSRGYYYGSRGYALDFWGQGASVTVSSAKTTPPSVYPLAPGSAAQTNSMVTLGCLVKGYFPEPVTVTWNSGSLSSGVHTFPAVLQSDLYTLSSSVTVPSSTWPSETVTCNVAHPASSTKVDKKIVPRDCGCKPCICTVPEVSSVFIFPPKPKDVLTITLTPKVTCVVVDISKDDPEVQFSWFVDDVEVHTAQTQPREEQFNSTFRSVSELPIMHQDWLNGKEFKCRVNSAAFPAPIEKTISKTKGRPKAPQVYTIPPPKEQMAKDKVSLTCMITDFFPEDITVEWQWNGQPAENYKNTQPIMDTDGSYFVYSKLNVQKSNWEAGNTFTCSVLHEGLHNHHTEKSLSHSPGK light: NIVLTQSPVSLAVSLGQRATISCRASESVDINGNTFMHWYQQKPGQSPKLVIYAASNIESGVPARFSGSGSSTDFTFTIDPVEADDVATYYCQQNIEDPWTFGGGTKVEIKRADAAPTVSIFPPSSEQLTSGGASVVCFLNNFYPKDINVKWKIDGSERQNGVLNSWTDQDSKDSTYSMSSTLTLTKDEYERHNSYTCEATHKTSTSPIVKSFNRNEC
–	–	–	–	–	–	–	–	–	–	–	no binding	MAb3 (antibody, V domains shown, murine monoclonal IgG, kappa, from hybridoma; also called murine MAb3) VH: QIQLVQSGPELKKPGETVKISCKASGYIFTNYGMNWVKQAPGKGLKWMGWINTYTGESRYADDFKGRFALSLETSASTAYLQINNLENEDMATYFCAREDYYGNSPWFFDVWGAGTTVTVSS VL: DIQMTQTTSSLSASLGDRVTISCNASQGINKYLNWYQQKPDGTVKLLIYYTSTLHSGVPSRFSGSGSGTDYSLTINNLEPEDIATYYCQQYTKLPFTFGSGTKLEIK
